{"source": "paper PMC2217618", "target": "RGDPEG-avidin (UniProt P02701)", "sequence (P02701 25-152)": "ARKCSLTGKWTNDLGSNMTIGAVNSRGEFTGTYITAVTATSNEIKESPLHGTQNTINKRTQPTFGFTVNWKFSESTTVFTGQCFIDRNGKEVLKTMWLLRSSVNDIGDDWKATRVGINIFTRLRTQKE", "assay": "ELISA"}
{"substance": "Bio-ULS-TRAIL (from UniProt P50591 114-281) (ligand)", "values": [{"measurement": "binding less than Bio-NHS-TRAIL", "result": 40, "unit": "% less"}]}
